Laboratory results: US20180185450A1 (Sanofi, published 2018)
Read-outs that look alike come from different tables or passages of the source. Numbered stars: 1 amine (or outer) side, 2 acyl side, 3 side chain; on linkers, the order of the positions; unused ones are H or OH. Square brackets hold non-standard residues; d marks the D form. Side chains are listed from the residue outwards. Ends that are not written are not given here. γGlu = O=C(O)[C@H](CCC(=O)[*:2])N[*:1]; X70 = not defined here; x53 = not defined here; x70 = not defined here; Aib = CC(C)(N)C(=O)O

Tests used:
Experiment in all cases: cell-based or functional assay
human GLP-1 receptor [1] = target: T1, human GLP-1 receptor (human, UniProt P43220 24-463)
human glucagon receptor [2] = target: T2, human glucagon receptor (human, UniProt P47871 26-477)
T2 sequence (P47871 26-477): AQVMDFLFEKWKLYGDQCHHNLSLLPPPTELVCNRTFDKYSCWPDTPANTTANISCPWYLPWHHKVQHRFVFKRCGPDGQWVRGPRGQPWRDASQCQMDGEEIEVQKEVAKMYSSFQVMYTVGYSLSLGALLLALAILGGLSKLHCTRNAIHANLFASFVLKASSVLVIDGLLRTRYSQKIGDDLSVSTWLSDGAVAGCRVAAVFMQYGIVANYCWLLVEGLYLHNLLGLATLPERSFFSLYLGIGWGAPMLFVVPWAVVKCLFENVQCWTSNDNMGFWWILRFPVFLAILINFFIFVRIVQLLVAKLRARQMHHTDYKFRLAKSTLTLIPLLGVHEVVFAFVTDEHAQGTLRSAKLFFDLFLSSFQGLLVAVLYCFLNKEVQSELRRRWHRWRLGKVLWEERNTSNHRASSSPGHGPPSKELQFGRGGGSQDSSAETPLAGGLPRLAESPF

human GLP-1 receptor [3] = target: T1, human GLP-1 receptor; remark: listed apart in the source
human glucagon receptor [4] = target: T2, human glucagon receptor; remark: listed apart in the source

Row | Binder | EC50 hGLP-1R (cAMP) (human GLP-1 receptor [1]) [pM] | EC50 hGlucagon-R (cAMP) (human glucagon receptor [2]) [pM] | EC50 hGLP-1R (cAMP) (human GLP-1 receptor [3]) [pM] | EC50 hGlucagon-R (cAMP) (human glucagon receptor [4]) [pM]
1 | HXQGTFTSDLSKQKDSRRAQDFIEWLKAGGPSSGAPPPS (dSer at 2; K(γE-x53) at 14; C-terminal NH2) [SEQ ID NO: 74] | 4.2 | 1.3 | 4.2 | 1.3
2 | HXQGTFTSDLSKQKESRRAXDFIEWLKAGGPSSGAPPPS (dSer at 2; K(γE-x53) at 14; Aib at 20; C-terminal NH2) [SEQ ID NO: 75] | 11.1 | 12.5 | 11.1 | 12.5
3 | HXQGTFTSDLSKQKDSRRAQDFIEWLKXGGPSSGAPPPS (dSer at 2; K(γE-x53) at 14; Aib at 28; C-terminal NH2) [SEQ ID NO: 78] | 17.8 | 1.6 | 17.8 | 1.6
4 | HXQGTFTSDLSKQKDSRRAQDFIEWLKKGGPSSGAPPPS (dSer at 2; K(γE-x53) at 14; C-terminal NH2) [SEQ ID NO: 84] | 8.1 | 4.3 | 8.1 | 4.3
5 | HXQGTFTSDLSKQKDSRRAQDFIEWLKNGGPSSGAPPPS (dSer at 2; K(γE-x53) at 14; C-terminal NH2) [SEQ ID NO: 97] | 3.5 | 1 | – | 1.2
6 | H[Aib]QGTFTSDLSKQK([γGlu-x53])DSRRAQDFIEWLKNGGPSSGAPPPS-NH2 (reading uncertain) [SEQ ID NO: 115] | 2.4 | 1.9 | 2.4 | 1.9
7 | HXQGTFTSDLSKQKDSRRAQDFIEWLKRGGPSSGAPPPS (dSer at 2; K(γE-x53) at 14; C-terminal NH2) [SEQ ID NO: 125] | 31.4 | 6.9 | 31.4 | 6.9
8 | H[Aib]QGTFTSDLSKQK([γGlu-X70])EEEAARLFIEWLKAGGPSSGAPPPS-NH2 (reading uncertain) [SEQ ID NO: 215] | 5.3 | 42.6 | 5.3 | 42.6
9 | H[Aib]QGTFTSDLSKQK([γGlu-X70])DEEAARLFIEWLKAGGPSSGAPPPS-NH2 (reading uncertain) [SEQ ID NO: 216] | 4.7 | 19.5 | 4.7 | 19.5
10 | HXQGTFTSDLSKQMDSRRAQDFIEWLKNGGPSSGAPPPS (Aib at 2; C-terminal NH2) [SEQ ID NO: 182] | – | – | 5.8 | 419
11 | HXQGTFTSDLSKQKDSRRAQDFIEWLKNGGPSSGAPPPS (dSer at 2; C-terminal NH2) [SEQ ID NO: 183] | – | – | 1020 | 916
12 | HXQGTFTSDLSKQKESRRAQDFIEWLKAGGPSSGAPPPS (dSer at 2; K(Ac) at 14; C-terminal NH2) [SEQ ID NO: 194] | – | – | 159 | 1290
13 | HXQGTFTSDLSKQMESRRAQDFIEWLKAGGPSSGAPPPS (dSer at 2; C-terminal NH2) [SEQ ID NO: 184] | – | – | 85.7 | 991
14 | HXQGTFTSDLSKQKESRRAQDFIEWLKAGGPSSGAPPPS (dSer at 2; K(γE-x53) at 14; C-terminal NH2) [SEQ ID NO: 4] | 5 | 4 | 5 | 4
15 | HXQGTFTSDLSKQMDSRRAQDFIEWLKRGGPSSGAPPPS (dSer at 2; C-terminal NH2) [SEQ ID NO: 185] | – | – | 75.7 | 262
16 | HXQGTFTSDLSKQMDSRRAQDFIEWLKKGGPSSGAPPPS (dSer at 2; C-terminal NH2) [SEQ ID NO: 186] | – | – | 102 | 590
17 | HXQGTFTSDLSKQMDSRRAQDFIEWLKXGGPSSGAPPPS (dSer at 2; Aib at 28; C-terminal NH2) [SEQ ID NO: 187] | – | – | 152 | 195
18 | HXQGTFTSDLSKQMDSRRAQDFIEWLKAGGPSSGAPPPS (dSer at 2; C-terminal NH2) [SEQ ID NO: 188] | – | – | 89.6 | 186
19 | HXQGTFTSDLSKQMESKAAQDFIEWLKAGGPSSGAPPPS (dSer at 2; C-terminal NH2) [SEQ ID NO: 189] | – | – | 5.6 | 1680

Row | Binder | EC50 hGLP-1R (cAMP) (human GLP-1 receptor [1]) [pM] | EC50 hGlucagon-R (cAMP) (human glucagon receptor [2]) [pM] | EC50 hGLP-1R (cAMP) (human GLP-1 receptor [3]) [pM] | EC50 hGlucagon-R (cAMP) (human glucagon receptor [4]) [pM]
20 | HXQGTFTSDLSKQKESKAAQDFIEWLKAGGPSSGAPPPS (dSer at 2; K(γE-x53) at 14; C-terminal NH2) [SEQ ID NO: 24] | 1.9 | 9.4 | 2 | 9.8
21 | HXQGTFTSDLSKQMESRRAXDFIEWLKAGGPSSGAPPPS (dSer at 2; Aib at 20; C-terminal NH2) [SEQ ID NO: 190] | – | – | 21.3 | 1560
22 | HXQGTFTSDLSKQXDSKAAQDFIEWLKAGGPSSGAPPPS (dSer at 2; Nle at 14; C-terminal NH2) [SEQ ID NO: 192] | – | – | – | 478
23 | HXQGTFTSDLSKQKDSKAAQDFIEWLKAGGPSSGAPPPS (dSer at 2; K(γE-x53) at 14; C-terminal NH2) [SEQ ID NO: 30] | 3.2 | 7 | 3.2 | 7
24 | HXQGTFTSDLSKQLDEEAARLFIEWLKAGGPSSGAPPPS (Aib at 2; C-terminal NH2) [SEQ ID NO: 224] | – | – | 1.3 | 2930
25 | HXQGTFTSDLSKQLEEEAARLFIEWLKAGGPSSGAPPPS (Aib at 2; C-terminal NH2) [SEQ ID NO: 225] | – | – | 0.7 | 2870
26 | H[Aib]QGTFTSDLSKQK([γGlu-x53])ESQAAQEFIEWLKAGGPSSGAPPPS-NH2 (reading uncertain) [SEQ ID NO: 38] | 2.9 | 53.1 | – | –
27 | HXQGTFTSDLSKQKDSQAAQDFIEWLKAGGPSSGAPPPS (dSer at 2; K(γE-x53) at 14; C-terminal NH2) [SEQ ID NO: 39] | 2.7 | 7.6 | – | –
28 | HXQGTFTSDLSKQKESQAAQDFIEWLKAGGPSSGAPPPS (dSer at 2; K(γE-x70) at 14; C-terminal NH2) [SEQ ID NO: 40] | 2.6 | 4.8 | – | –
29 | H[Aib]QGTFTSDLSKQK([γGlu-x70])ESQAAQDFIEWLKAGGPSSGAPPPS-NH2 (reading uncertain) [SEQ ID NO: 41] | 3.3 | 20.7 | – | –
30 | HXQGTFTSDLSKQKESQAAQDFIEWLKAGGPSSGAPPPS (dSer at 2; K(x53) at 14; C-terminal NH2) [SEQ ID NO: 42] | 10.2 | 199 | – | –
31 | H[Aib]QGTFTSDLSKQK(x53)ESQAAQDFIEWLKAGGPSSGAPPPS-NH2 (reading uncertain) [SEQ ID NO: 43] | 4.1 | 443 | – | –
32 | HXQGTFTSDLSKQKESRAAQDFIEWLKAGGPSSGAPPPS (dSer at 2; K(γE-x53) at 14; C-terminal NH2) [SEQ ID NO: 44] | 2.7 | 12 | – | –
33 | HXQGTFTSDLSKQKESRAAQLFIEWLKAGGPSSGAPPPS (dSer at 2; K(γE-x70) at 14; C-terminal NH2) [SEQ ID NO: 45] | 7.5 | 19.9 | – | –
34 | HXQGTFTSDLSKQKESRAAXLFIEWLKAGGPSSGAPPPS (dSer at 2; K(γE-x53) at 14; Aib at 20; C-terminal NH2) [SEQ ID NO: 46] | 3.2 | 25.1 | – | –
35 | HXQGTFTSDLSKQKESRAAQEFIEWLKAGGPSSGAPPPS (dSer at 2; K(γE-x53) at 14; C-terminal NH2) [SEQ ID NO: 47] | 2.2 | 10.3 | – | –
36 | HXQGTFTSDLSKQKESRAAQLFIEWLKAGGPSSGAPPPS (dSer at 2; K(γE-x53) at 14; C-terminal NH2) [SEQ ID NO: 48] | 5.9 | 53.6 | – | –
37 | HXQGTFTSDLSKQKESRAAQDFIEWLKAGGPSSGAPPPS (dSer at 2; K(γE-γE-x53) at 14; C-terminal NH2) [SEQ ID NO: 49] | 1.1 | 2.9 | – | –
38 | HXQGTFTSDLSKQKESRAAQDFIEWLKAGGPSSGAPPPS (dSer at 2; K(GABA-x53) at 14; C-terminal NH2) [SEQ ID NO: 50] | 3.3 | 11.1 | – | –
